Experimental data reported in patent publication US5747449A (Corvas International, Inc., priority 1993, dated 1998).

Biological target: Factor Xa (Homo sapiens, UniProt P00742)
Assay: Factor Xa amidolytic assay (chromogenic substrate)
Assay type: biochemical
Conditions: mutants produced in E. coli; read-out: Ki (nM), inhibition constant for Factor Xa
Procedure: Trypsin, Factor Xa, thrombin, Factor XIIa and plasmin amidolytic assays […]
Briefly, the following were added to a 96-well microtiter plate well (see Table below):
50 μl inhibitor (various concentrations as required, diluted in TESA);
50 μl protease (suitable concentration, diluted in TBSA)
The plate was incubated at room temperature for 30 minutes or for 2 hours (Factor Xa); and 50 μl chromogenic substrate was added (as required, diluted in water). The initial rate was measured at […] during 10-30 minutes at room temperature.
To determine the inhibition constants, the initial rate (vi) was measured at various inhibitor ([It ]) and substrate concentrations, and the apparent inhibition constant (Ki) was determined by fitting the data obtained at each substrate concentration with the following equation: […]
vi /vo ={([Et ]-[It ]-Ki^*) +[([It […]
where vo is the uninhibited initial rate and [Et ] is the total enzyme concentration. Extrapolation of Ki^* values to zero substrate concentrations yields a value for the real inhibition constant.

Sequence of Factor Xa (P00742 235-488 limits assumed): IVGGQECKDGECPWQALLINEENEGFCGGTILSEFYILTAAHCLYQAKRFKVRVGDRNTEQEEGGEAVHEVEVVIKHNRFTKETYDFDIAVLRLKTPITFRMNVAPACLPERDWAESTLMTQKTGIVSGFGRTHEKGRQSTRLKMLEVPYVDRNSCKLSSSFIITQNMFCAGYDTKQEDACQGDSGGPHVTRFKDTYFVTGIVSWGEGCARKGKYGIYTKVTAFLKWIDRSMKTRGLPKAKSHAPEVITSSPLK
Sequence of Factor Xa (P00742 41-179 partner limits assumed): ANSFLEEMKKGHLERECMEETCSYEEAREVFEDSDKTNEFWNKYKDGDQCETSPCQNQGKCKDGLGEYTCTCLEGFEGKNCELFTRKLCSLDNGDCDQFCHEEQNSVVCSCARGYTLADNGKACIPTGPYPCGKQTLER

Row | Substance | Ki [nM]
1 | 5L48: BPTI with substitutions 11Glu 13Trp 15Arg 17Leu 18His 19His 34Ile 39Gly 46Glu | 4
2 | 5L68: BPTI with substitutions 11Ser 13Leu 15Arg 17Leu 18His 19Lys 34Tyr 39Phe 46Glu | 1.5
3 | 3L60: BPTI with substitutions 13Ile 15Arg 17Tyr 18Tyr 19Lys 39Leu 46Glu | 4
4 | 5L65: BPTI with substitutions 11Ser 13Leu 15Arg 17Leu 18His 19Lys 34Tyr 39Tyr 46Glu | 5
5 | 5L69: BPTI with substitutions 11Pro 13Ile 15Arg 17Leu 18His 19Lys 34Tyr 39Met 46Glu | 5
6 | 3L55: BPTI with substitutions 13Ile 15Arg 17Ala 18Phe 19Asn 39Leu 46Glu | 5
7 | 5L84: BPTI with substitutions 11Glu 13Leu 15Arg 17Leu 18His 19Lys 34Tyr 39Phe 46Glu | 2
